Experimental data: a protein production outcome set (Wang et al. 2014)

Experiment: label from the status in PepcDB records
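Further: failed if final PepcDB status was selected cloned or expressed and not failed if soluble or beyond.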

Q: With “MTPAARLSAAIGILDRILGGTPAEQALTNWGRASRFAGSGDRAAVRDLVFDALRCRRSFARAGGAETGRGLVLGGLRMAGQEVGDLFTGEGHAPAPPAGSELKPQAPAELEALDCPDWLAPALRDSLGADFAPVMEALRHRAPVFLRVNLARTDRAAAAAELAAEGIVTQPHPLAETALEVTENPRRLQASAAYREGRVELQDAASQAIVAALPLAPGDRVLDYCAGGGGKSLAMAARAPIDLSAHDADPRRMRDLPERAARAGVKVRRLAPGDPARRGPFDLVLADVPCSGSGSWRRAPEGKWSLTPERLAELRAIQSTILDEVAPLVRPGGHLAYATCSLLASENAGQTEAFLERTSGWTRVHQLRLTPLDGGDGFFLDLLQRNG” as the sequence, how does the protein production read?
A: failed

Q: With “MTPATTTLVFTYGTLKRGFSNHVLMQDLIRSGDASFKGVYQTLDKYPLVCGPYRVPFLLNKPGSGYHVNGELYAVSPRGLSRLDELEGISRGHYIRQPIRLAAAEEEEEEEGDLETEAPSSCVVEAYYAHKSYEEELWRRNRGRSFGAYTENEARGYVKRNDRPQHLSFLDHIRIFVSSPCD” as the sequence, how does the protein production read?
A: failed

Q: For “MTPDIRLRVDGRAIVLLTAGCAPGLCPAFAFWACKASAPGRSIAVTPMRSEQQQTDQHADTLHPYACECHAAHLPSSRKKARMRASLFKFGLNLWRPFLFAGIHVTVLSEDYRFARVELRHRPWNRNYVGTHFGGSLFAMTDPFWMLLTIHNLGRDYYVWDKAGNIEFVKPGRGTLTADFVIDDSLLAQLRQATASGEKHLRWFENEVHHRDGEVVARVRKQLYVKRKPAR”, which protein production is on record?
A: failed

Q: With “MTPFPAYVPPDFTRPDLAAAPPVRVAEAPGSGVLPAGFHATSNYPEYVHLGGGRWLLASGSRMDAVLVLDGDMLRVVEPRLVRRGDRVVVGRTENGEEGIYVHTTGFDAPAGAGGDKFTFRSRGTRESPFSRSYEELYDILRHDRDHGHIVWVLGPAVAFDRDSRAAMAGLIGGGYCHALLAGNALATHDLEAALFHTGLGQDIYTQALVAGGHYHHLDVINEVLRHGSLERAIAELGIRDGIIRACLEHRVPVVLAGSIRDDGPLPDVITDSRQAQDAMRAHARRATTVIALATQLHAIAVGNMTPSYRVLDDGTVRPVYFYIVDMSEFGADKLANRGSGQARAILTNVQDFMVNLWNNLKG” as the sequence, how does the protein production read?
A: failed

Q: With “MTPFTLCAATSSGNPHNNHYPNHHHITDQTSLEQVAWLDHVAATYTGDRRSSASFISSDCVVMDIDNDHTDNPDEWITPDDLAELMAGVEFMTATSRNHQKPKRTLSARPRFHVYFPISPVTDADTYAGLKRRLAGRFGFFDPQALDAGRFIYGTTNPETTIHNGTKLLDAWLDEADEIDVFAAFDASTQVIGEGSRNATLSRFAGRVLIRYGQTAQARDLFDRKASLCEPPLSDHELESIWQSACRFAAKVEAQPGYLSPEAYAELTSLRPEDFTDVGQASMLTAEYSSRLAFTEATDWLVYEGGVWSESAPAAQGIAQELTDRQLAEAGHLLEKARDELMVTGANAVLAAASSKAKALGGFTSPQRAAYRAFEDAKAYEAFVLKRRESRAITSCLREAHPMLLTTPARLDADPYLLNTPGGTWDVRDGTRRDHNPLDLITKQTALDPTDTGAEIWNRALNVFFQSDRELIGYVQRIVGLAAIGTVMVEALVIAYGDGRNGKSTFWNTIARVLGTYAGNMSADVLTIGGNRNVKPELAEAKGKRLIIAAESEEGVRLSTSTVKQLASTDQIYAEKKYKAPFAFTPSHTLILYTNHLPRVGAMDAGIWRRLIVIPFNAVIESSSDVKNYADHLYETAGGAVLAWIMEGSRLIHAEDYQLTPPAQVVAASSAYREENNWFAQFLDARCEVDPSLSERAGDLYQEYRAWAQSTSGWARPMADFNATLEQSGFERRKSKHGMYVYGLALTSEFNS” as the sequence, how does the protein production read?
A: failed

Q: With “MTPGSNIPLSAARVTVDVAAPVRLDVSGLLLTADGKVRSDDDFIFYNQPTGQGVTYRSGGGSAPDAIVVDTSAVPPGIEKIVVTASPDAAGQTFQGIEPTATIRNADDNAVLATFTPPQLGTETALVIVEVYLRNGAWKARAVGQGYSNGLAGIATDFGVTVEEPAAPATPPQPQAVTPPPPPAAAPTMPAAPPAPPAAPPAPAPGTGKINLDKGRVSLQKNQTVSLVKGGRPVLSQVKMGLGWEPAYRGKDIDLDASVIAYGPQRNHIDSCYFGKLSIVNGAIKHSGDNLTGEGGGDDEVIVVDLGRLPQEVSGLVFTVNSFSGQKFTEVAKAYCRLIDAASGEELVRFDLTSAEPQTGVMMAKLIRQYSGEWEMTAIGDFVKSRTVRGMVKPAAQAL” as the sequence, how does the protein production read?
A: failed
